B1: TPR t1 (parent)
chain: GACCAAUCUGCCCUCAGAGCUCGAGAACAUCUUCGGAUGCAGAGGAGGCAGGCUUCGGUGGCGCGAUAGCGCCAACGUCCUCAACCUCCAAUGCAUCCCACCACAUGAUGAUGCCUGAAGAGCCUUGGUUUUUUG

Variants of: B1
Assay: polymerase ribozyme fitness, log enrichment relative to wild type (log ratio); higher = more active; in vitro selection for triplet polymerase activity
Method in brief: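 Both subunits of a heterodimeric triplet polymerase ribozyme were given their own mutant library, built by PCR and transcribed. Each library was annealed with a biotinylated primer, the partner subunit and triplets, incubated frozen at −7 °C, and its extended constructs gel-excised, captured on streptavidin beads and amplified by RT-PCR, all in one round done in triplicate. Fitness is the logarithm of genotype enrichment relative to wild-type enrichment, with replicates averaged by inverse-variance weighting. That logarithm is base 2, and Illumina-sequenced genotypes needed ≥10 input reads and ≥1 read per output.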

Variant	polymerase ribozyme fitness (log ratio)
C28G C49U U92A G110A	-5.35
A29C G52U G63C	-2.49
C28U G39A G61U	-2.23
A29U C31G C97G U112A U129G	-6.42
C28U G71U A83U C86G C123G	-2.39
C28U G45A G63C	-3.75
A29U C62A U112C G127C	-3.28
C28U U59G C86G C89U	-4.05
A29G G51U C62U C82G	-4.8
C28G C64U U81A G93U C101U U112G	-5.16
C28U G47U G93A	-5.35
A29C C64A U109G G113A	-6.15
A29G G42A G69C	-4.23
A29G G120A	-1.03
C28G U33A C53A C114U G128U U133A	-7.29
C28G C53A	-1.99
C28G U54C A68G G110U	-3.67
C28G G57C A83C C123A	-2.8
A29G C72U G135U	-1.91
A29G C72G	-1.98
A29G C72U	-1.98
A29U G44A C72U G110A U125A	-5.47
A29G A43U G61U U116C G117U	-0.773
C28U G36A G48A	-3.89

Variant	polymerase ribozyme fitness (log ratio)
A29G G60C U106A U109C G117A G127A	-5.43
C28U G58A	-2.03
C28G U32C C101A	-3.79
C28U A43C	-4.69
A29U G39U G61A G122A	-3.23
C28U C73U	-1.11
C28U C73G	-2.44
C28U C34A C53G C124A	-4.41
A29U C73A A118U	-0.992
A29C C56U U81A	-2.74
A29G A37C G45C	-3.58
A29G C53A A90C C101U G113C	-2.81
A29G G60C A74U	-3.15
C28U G39C C53U G61U	-2.31
A29G C34A	-4.34
C28U G48A	-3.13
C28U G48U	-2.79
C28G U59A C104U G113C	-5
C28U C64A A95G C115A U129C U134A	-4.91
C28G U59A	-3.18
C28G C53U C56U	-2.28
C28U C101A U106A	-1.04
A29G A37U C89U C94U C123A U126A	-3.13
A29G U55C G63U U87A G113C	-4.13

Variant	polymerase ribozyme fitness (log ratio)
C28G G57U	-2.76
C28G G57A	-4.66
A29U G39A G117A	-2.71
A29G U116A	-3.67
A29C A37G G47U C101U G110U	-5.5
C28G U59A C89G A103G C104A U109G C123G U133A	-5.51
C28U U55C U59C	-3.17
A29C G45A C115U	-4.57
A29C C53G U133G	-4.74
A29G G61A C99A U112C C124A G135C	-5.36
C28U U129G	-2.18
C28U G120C	-1.37
C28U G120U	-1.78
C28G G63U C70G C88A U106A U125G G128C	-4.76
C28G G47C	-3.69
A29G A103C U106A	-5.73
A29C G61A C88G C114G	-6.84
C28G C70A A90G G117U	-5.76
C28G C56G C86U C124U	-1.07
C28U A43U C89G	-5.07
C28U A43U U59G C73U	-6.04
C28U G117U	-3.99
C28U G117C	-6
C28G U92C C123A	-3.8

Variant	polymerase ribozyme fitness (log ratio)
A29U C114U G120C C123U G128C	-4.45
A29G A37C C102A	-4.8
A29C A75G C124G U129C	-1.16
A29G A118U G120C	-1.87
C28G C89A	-4.51
A29C C62A	-3
A29G A37U A95C	-3.29
A29C G63A G120U	-3.1
A29G C62U A118U G120C	-1.4
A29G A50U C73G	-1.85
A29U G36U U112C	-1.39
A29U C89U	-2.05
C28U U112C	0.129
C28U U112A	-1.56
C28U U112G	-1.97
C28G C56A G110U C124U	-0.0721
A29G C97U C101A A103U G120A U133G	-7
A29C G44C C53U C85A C124G	-4.76
C28G C72A C98A G122U	-5.55
A29G A91C	-1.57
C28G G48C A83G A84U G120C	-2.29
C28U G113C C123G	-3.9
A29C G44U C73G C82G U112C C115G	-7.14
C28U G42U C49G G69U U126G U130A	-6.32

Variant	polymerase ribozyme fitness (log ratio)
A29C G61C U87A	-4.41
A29C U55C C115A U133A	-2.81
C28U C101U G120U	-3.5
C28U C40A	-2.12
A29G G117C	-3.99
A29G G117A	-2.22
A29G A50C	-1.66
A29U C40U C72G A84C A100C U106A A119U	-3.21
A29G G61A C124A	0.686
A29U A84G U87G	-2.37
C28U G93U U112C	-1.92
C28G G39U C53U G63C U78C C124A	-3.85
A29C G47U G60C C97U	-6
A29U C97A A121U	-4.33
C28U U92C	-3.43
C28U A29U G45C G61A	-3.76
A29G C97A U112C	-4.92
C28U A46U A74U	-3.5
A29U C56U A84G C97U	-3.9
A29G G77A U78A C123A	-2.27
C28G G60A C79G	-4.94
C28U G58C G61C	-2.78
C28G G60A	-3.53
A29C C31G G61U C101U A121U C124A	-5.89

Variant	polymerase ribozyme fitness (log ratio)
C28G G93U	-3.89
A29U C34U G47U C53U	-6.51
C28U G44U C56A	-4.15
A29G G63C	-1.45
A29G A50U C70G G113A	-5.1
A29U G44U	-3.06
C28U G39U G71C C99U G120A	-4.64
A29G G45U C73U U78G U87G	-2.9
C28G G63A A84C A121U	-3.21
C28G G110A	-1.49
A29G A121U	0.902
A29U A46G G60U A91C	-2.59
A29C G63U	-3.09
A29C U33C U55A C86A C124A	-6.12
A29G C72A G113A G128A	-2.62
A29C G47A G69U	-1.84
A29U C76A	-1.91
C28U C79G	-4.3
A29C G77U U81C	-4.43
C28U C70G	-4.94
C28U G45A G63U U78C	-5
A29G C115U	-1.56
C28U A37U G44U A90C	-3.61
A29G U59G G60U U130G	-2.01

Variant	polymerase ribozyme fitness (log ratio)
C28G G36U C72U C73U	-4.2
A29G U109C	0.997
A29U C34U	-4.41
C28U G71A	-2.58
C28U G71C	-2.78
C28G G69U	-0.552
A29G C62U	-1.68
A29G C40G A74U U81A U92G C115A	-3.87
A29U A37U G60U C89U	-3.5
A29G C40A C97U G113C	-4.13
C28G C56U C80U	-4.97
A29C A121U	0.0449
C28G U32G C62A A121C	-6.19
C28U C53G G58C G60C	-3.2
A29U C31G C34G G44A G60A C114U	-6.84
C28G G57C A84U C94U A118U	-2.35
C28U C123A	-1.91
A29G C104A G117C U131C	-6
C28G G45U	-4.17
C28G G63C U129A	-4.76
A29C C124A	-0.296
A29C C124G	-0.564
A29G A37C G71U G117U	-4.47

From the RNAGym collection of RNA variant scans (doi:10.1073/pnas.2313332121)
